According to patent publication US20050220762A1:

Columns and labels:
[1] = molecular target: T1, full length rat GHR (L43R) on BAF3 cells (rat) (UniProt P16310); assay: cell-based or functional assay
T1 sequence (looked up): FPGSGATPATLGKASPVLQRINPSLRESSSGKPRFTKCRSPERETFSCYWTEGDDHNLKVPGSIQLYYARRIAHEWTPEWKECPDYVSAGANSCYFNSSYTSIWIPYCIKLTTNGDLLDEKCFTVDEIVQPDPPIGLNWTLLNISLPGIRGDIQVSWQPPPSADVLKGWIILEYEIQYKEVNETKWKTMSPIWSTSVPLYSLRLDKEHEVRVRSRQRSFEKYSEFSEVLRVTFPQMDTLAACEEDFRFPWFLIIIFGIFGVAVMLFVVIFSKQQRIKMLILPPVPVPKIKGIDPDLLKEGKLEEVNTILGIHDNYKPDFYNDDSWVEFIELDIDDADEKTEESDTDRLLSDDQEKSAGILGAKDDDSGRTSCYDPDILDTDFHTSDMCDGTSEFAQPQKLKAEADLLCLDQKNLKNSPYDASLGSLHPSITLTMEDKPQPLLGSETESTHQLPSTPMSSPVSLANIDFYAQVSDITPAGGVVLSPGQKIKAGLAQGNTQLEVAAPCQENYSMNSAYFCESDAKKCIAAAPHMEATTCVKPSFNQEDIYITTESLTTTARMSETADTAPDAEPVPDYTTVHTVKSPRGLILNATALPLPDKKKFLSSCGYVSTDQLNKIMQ

[2] = molecular target: human growth hormone receptor on IM-9 cells (human) (UniProt P10912); assay: cell-based or functional assay
Sequence of UniProt P10912 (P10912 19-638): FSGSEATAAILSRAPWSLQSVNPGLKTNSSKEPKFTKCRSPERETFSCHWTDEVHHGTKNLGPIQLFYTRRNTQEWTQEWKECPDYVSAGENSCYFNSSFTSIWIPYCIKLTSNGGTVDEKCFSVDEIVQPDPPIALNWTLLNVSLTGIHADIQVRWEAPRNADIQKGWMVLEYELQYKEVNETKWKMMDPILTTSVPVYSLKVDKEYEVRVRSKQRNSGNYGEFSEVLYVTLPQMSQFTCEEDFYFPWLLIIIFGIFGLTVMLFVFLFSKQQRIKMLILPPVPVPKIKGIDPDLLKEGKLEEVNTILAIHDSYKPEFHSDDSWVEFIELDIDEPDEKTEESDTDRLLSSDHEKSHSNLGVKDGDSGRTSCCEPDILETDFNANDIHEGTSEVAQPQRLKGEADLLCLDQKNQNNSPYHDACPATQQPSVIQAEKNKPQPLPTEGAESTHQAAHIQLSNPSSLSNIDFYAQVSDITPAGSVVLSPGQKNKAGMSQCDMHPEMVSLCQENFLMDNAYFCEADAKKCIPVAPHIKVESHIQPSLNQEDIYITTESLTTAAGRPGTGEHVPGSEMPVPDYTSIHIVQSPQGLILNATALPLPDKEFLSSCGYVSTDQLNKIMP

Substance | Proliferation EC50 (nM), BrdU, rat GHR (L43R) BAF3 cells; WHO hGH expressed as unity [1] [nM] | pSTAT5 EC50 (nM), IM-9; WHO hGH expressed as unity [2] [nM]
hGH Y35pAF linked to 40 kDa PEG (from UniProt P01241 27-217) (ligand) | 24 | 53.3
hGH Y143pAF linked to 30 kDa PEG (from UniProt P01241 27-217) (ligand) | 6.6 | 12.3
hGH R134pAF linked to 20 kDa PEG (from UniProt P01241 27-217) (ligand) | – | 5.3
hGH K145pAF linked to 30 kDa PEG (from UniProt P01241 27-217) (ligand) | 5.3 | 20.6
hGH G131pAF linked to 30 kDa PEG (from UniProt P01241 27-217) (ligand) | 4.6 | 23.8
